Test results from paper PMC3506619 (PLoS ONE, 2012).

B1: ΔS16 truncated β subunit of methionine adenosyltransferase II (domain or fragment, human)
chain: GSHSCRLVEEEVNIPNRRVLVTGATGLLGRAVHKEFQQNNWHAVGCGFRRARPKFEQVNLLDSNAVHHIIHDFQPHVIVHCAAERRPDVVENQPDAASQLNVDASGNLAKEAAAVGAFLIYISSDYVFDGTNPPYREEDIPAPLNLYGKTKLDGEKAVLENNLGAAVLRIPILYGEVEKLEESAVTVMFDKVQFSNKSANMDHWQQRFPTHVKDVATVCRQLAEKRMLDPSIKGTFHWSGNEQMTKYEMACAIADAFNLPSSHLRPITDSPVLGAQRPRNAQLDCSKLETLGIGQRTPFRIGIKESLWPFLIDKRWRQTVFH
B2: refolded methionine adenosyltransferase II catalytic α2 subunit (human MAT2A) (enzyme)
chain: not shown
notes: human MAT2A ORF from lymphocyte RNA, non-tagged; all cloned ORFs carried A233V and G193S against previously reported cDNAs; Dimer by gel filtration at low concentration, dimer and tetramer at higher concentration; Runs as a double band (α2 and α2′) on SDS-PAGE; The ITC methods say only 'α2 subunit'; also called MAT α2

Key:
[1] = molecular target: B2; test: SEC; equimolar refolded α2 and β (wild type, mutant or truncated) mixed 1 h at 4°C, hetero-oligomer isolated on Biogel A 1.5 m in 50 mM Tris/HCl pH 8, 10 mM MgSO4, 50 mM KCl; peak on SDS-PAGE, densitometric scanning of Coomassie-stained bands; details: both partners purified
[2] = molecular target: the molecule itself; test: SEC; analytical gel filtration on Superose 12 10/300 GL, refolded α2 50 µg injected, 20 mM Tris/HCl pH 8, 10 mM MgSO4, 150 mM KCl; detection by MAT activity and dot blot
[3] = molecular target: the molecule itself; test: SEC; analytical gel filtration on Superose 12 10/300 GL, refolded α2 at higher protein concentration (200 µg injected), 20 mM Tris/HCl pH 8, 10 mM MgSO4, 150 mM KCl; detection by MAT activity and dot blot

Binder	(α2+α2′)/β subunit ratio [1]	stoichiometry N [2]	stoichiometry N [3]
B1	2		
B2		2	4
